Experimental data taken from patent publication US20180303898A1 (SANFORD BURNHAM PREBYS MEDICAL DISCOVERY INSTITUTE, published 2018).
Bridges are numbered along the chain shown (N, C = ends). Where no end group is shown, it is not given here. FAM = 5(6)-carboxyfluorescein; Ahx = NCCCCCC(=O)O

T1: b1b2 domain of neuropilin-1 (NRP-1), recombinant (UniProt O14786 273-586, limits assumed)
T1 construct: domain: b1b2 domain; also called NRP-1 b1b2; b1b2 domain of NRP-1
T1 sequence (looked up): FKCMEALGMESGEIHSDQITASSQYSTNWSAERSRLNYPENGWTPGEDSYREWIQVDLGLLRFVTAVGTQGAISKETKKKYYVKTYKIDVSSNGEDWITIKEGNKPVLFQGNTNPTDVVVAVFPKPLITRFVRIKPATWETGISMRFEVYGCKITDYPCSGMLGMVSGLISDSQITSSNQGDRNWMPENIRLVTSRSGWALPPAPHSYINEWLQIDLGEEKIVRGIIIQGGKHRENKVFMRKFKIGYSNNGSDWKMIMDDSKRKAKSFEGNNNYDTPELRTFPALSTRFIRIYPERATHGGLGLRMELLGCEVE

T2: recombinant 6x-His-tagged p32 protein (p32/p33/gC1qR/HABP1) (UniProt Q07021 74-282)
T2 construct: not shown: 6x-His tag
T2 sequence (looked up): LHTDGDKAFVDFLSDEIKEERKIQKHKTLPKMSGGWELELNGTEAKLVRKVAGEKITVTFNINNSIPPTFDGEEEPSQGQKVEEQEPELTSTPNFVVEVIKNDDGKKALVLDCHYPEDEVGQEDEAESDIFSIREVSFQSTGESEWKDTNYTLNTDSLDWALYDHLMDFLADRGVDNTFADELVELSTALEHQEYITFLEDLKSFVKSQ

B1: FAM-labeled TT1 peptide (CKRGARSTC) (peptide)
peptide: {FAM-Ahx}-CKRGARSTC
modifications: disulfide (positions not given here); not fully specified (bridges); also: cyclic peptide, ring type not given here
notes: Synthetic fluorescent peptide used as the probe in the fluorescence polarization assays; also called FAM-TT1; FAM-TT-1

Legend:
[1] = biological target: T1, b1b2 domain of neuropilin-1 (NRP-1), …; assay: fluorescence polarization, recombinant b1b2 domain of NRP-1
Experimental: FIG. 8 is a graph showing specificity of TT1 binding. Specificity of TT1 was further evaluated by measuring the binding of FAM-TT1 to recombinant non-target protein, b1b2 domain of neuropilin-1 (NRP-1). The binding was studied by fluorescence polarization. […] Each data point presents average±S.D., n=4-6.
(§1) The assay was initially set up in 20 μl well volume in 384 well plate (Corning Life Sciences), and measurements were carried out using PheraStar FS plate reader (BMG LABTECH, Ortenberg, Germany) in quadruplicate. Peptide and protein stock solutions were diluted to desired concentration with assay buffer (50 mM BIS-TRIS pH 7.4, 0.05% Tween20, 1 mM DTT). FAM-labeled peptides were protected from light during the experiment to avoid photobleaching. Optimal concentration of fluorescein (FAM) labeled-peptides for the assay was determined by measuring the limit of detection (LOD), signal-to-background ratio (S/B), and stability of mP value over series of peptide concentrations. In the binding assay, the concentration of FAM-peptide was kept constant, and the FP was measured over the range of target protein concentrations. The peptide dissociation constant (KD) was obtained by fitting the binding curve into Michaelis-Menten kinetics in GraphPad Prism-software (GraphPad Software, Inc., CA, USA). […]

[2] = biological target: T2, recombinant 6x-His-tagged p32 protein …; assay: fluorescence polarization, FAM-TT1 constant, p32 titrated, in BIS-TRIS buffer
Experimental: FIG. 6 is a graph showing the effect of buffer solution on interaction of TT1 and p32. The binding affinity of FAM-labeled TT1 to p32 was studied in different assay buffers: in PBS, HEPES, and BIS-TRIS, respectively. The binding was measured by fluorescence polarization (FP) and observed as increased FP value. Binding constants (KD) were calculated by fitting the binding curves into Michaelis-Menten kinetics. Each data point presents average±S.D., n=4-6.
as §1, with “concentrations.” for “concentrations. The peptide dissociation constant (KD) was obtained by fitting the binding curve into Michaelis-Menten kinetics in GraphPad Prism-software (GraphPad Software, Inc., CA, USA).”

[3] = biological target: T2, recombinant 6x-His-tagged p32 protein …; assay: fluorescence polarization, FAM-labeled peptide constant, p32 titrated (FIG. 2A)
Experimental: FIGS. 2A-2D are graphs showing FP- and phage binding-based validation of p32 binding peptides and hit compounds. […] Measurements were performed with PheraStar FS plate reader (BMG Labtech, Ortenberg, Germany) on 384-well plate. […] (C) Assessment of hit compound binding to a non-target secondary protein, NRP-1, to determine the specificity of the hit compounds in FP assay. A known NRP-1 binding peptide, RPARPAR (SEQ ID NO:18), was used as a control. (D) Effect of the hit compounds on the TT1 phage binding to p32 protein. TT1 phage binding to p32 in the presence of 100 μM hit compounds was determined in ELISA-type of binding assay. Each data point presents average±S.D., n=4.
The assay was initially set up in 20 μl well volume in 384 well plate (Corning Life Sciences), and measurements were carried out using PheraStar FS plate reader (BMG LABTECH, Ortenberg, Germany) in quadruplicate. […] Optimal concentration of fluorescein (FAM) labeled-peptides for the assay was determined by measuring the limit of detection (LOD), signal-to-background ratio (S/B), and stability of mP value over series of peptide concentrations. In the binding assay, the concentration of FAM-peptide was kept constant, and the FP was measured over the range of target protein concentrations. […]

binding result [1]	Kd [2]	Kd [3]	Binder
no binding	2.3 µM	–	B1
–	–	23 µM	{FAM-Ahx}-CGNKRTRGC (disulfide 1-9 (inferred), also called FAM-LyP-1) [FAM-labeled LyP-1 peptide (CGNKRTRGC)]
